# Data taken from the RNAGym collection of RNA variant scans (doi:10.7554/elife.80360).
# B1: Twister Ribozyme (parent)
# chain: AACACUGCCAAUGCCGGUCCCAAGCCCGGAUAAAAGUGGAGGGGGCGG
# Variants of: B1
# Experiment: self-cleavage, relative activity (ratio to wild type); higher = more cleavage; co-transcriptional
row,Variant,self-cleavage
1,G7U A11U,0.0842
2,G7U A11C,0.0886
3,G7A C46A,0.354
4,C8A G47C,0.169
5,C8A G47A,0.26
6,C8A G47U,0.156
7,G7C G44A,0.0625
8,G7C G44U,0.0818
9,G7U G41C,0.111
10,G7C G16C,0.13
11,C8A U31G,0.57
12,C8A G36C,0.145
13,C8A G36A,0.101
14,G7A A23U,0.12
15,G7A A23C,0.0662
16,G7C G47C,0.122
17,U6C G44C,0.513
18,U6C G44A,0.63
19,U6G A30U,0.687
20,U6G A30G,0.322
21,G7A A40C,0.132
22,G7A A40U,0.127
23,G7C C21G,0.0593
24,G7C C21U,0.0396

row,Variant,self-cleavage
1,G7C A23U,0.0664
2,G7C G39C,0.071
3,U6C G42U,0.107
4,U6C G42C,0.11
5,C8G A11G,0.392
6,G7U A30U,0.0836
7,G7U A30C,0.0485
8,G7C A22C,0.0571
9,U6G A23U,0.0909
10,U6G C25A,0.058
11,G7U U12C,0.0693
12,G7U U12A,0.0775
13,G7U U12G,0.208
14,U6G G38U,0.223
15,U6C G36U,0.0917
16,U6C G36A,0.136
17,G7A C19A,0.0667
18,U6C G47U,0.575
19,U6C G47C,0.209
20,U6C G47A,0.579
21,G7C C20G,0.0473
22,G7C C20U,0.122
23,G7C G42C,0.0454
24,G7C G42A,0.062

row,Variant,self-cleavage
1,C8A U37C,0.144
2,C8A U37G,0.3
3,C8A C19A,0.0947
4,C8A C19U,0.107
5,G7A G45U,0.177
6,C8A A22U,0.127
7,U6G A10U,0.204
8,G7A A34U,0.154
9,G7U A22G,0.0616
10,G7U A22U,0.0446
11,G7U A22C,0.11
12,U6G G39C,0.124
13,U6G G39U,0.105
14,G7U G43A,0.0755
15,G7U G43C,0.0634
16,G7A A35U,0.546
17,G7A A35G,0.123
18,U6G C15G,0.0391
19,G7U G44A,0.19
20,G7U G44U,0.0819
21,G7C C25G,0.218
22,G7C C25A,0.0795
23,G7U C19G,0.0806
24,G7U C19U,0.0568

row,Variant,self-cleavage
1,C8G A10U,0.429
2,G7A A11C,0.0895
3,U6G U12G,0.343
4,U6G U12C,0.35
5,U6G U12A,0.769
6,G7A G38A,0.0994
7,G7A G38C,0.348
8,U6C G17A,0.0938
9,U6C G17C,0.0484
10,U6G C20A,0.0634
11,U6G C20G,0.0753
12,U6G C20U,0.236
13,G7U C14U,0.0997
14,C8G A32G,0.275
15,C8G A32C,0.323
16,U6G G29U,0.173
17,G7U C20A,0.0332
18,C8A A30G,0.567
19,G7C C19G,0.0745
20,U6C G24A,0.0737
21,U6C G24C,0.0688
22,C8A A35C,0.405
23,C8A A35U,0.477
24,C8A A35G,0.226

row,Variant,self-cleavage
1,G7A C26G,0.0601
2,G7A C26U,0.102
3,G7C C27U,0.0315
4,G7C C27A,0.0706
5,G7C C27G,0.073
6,G7U G24C,0.0734
7,G7U G24U,0.0676
8,G7C A32C,0.0784
9,G7C A32G,0.105
10,G7U A35G,0.0839
11,G7U A35U,0.109
12,G7U A35C,0.0996
13,G7C G17U,0.0545
14,G7C A10G,0.0662
15,G7C A10C,0.0829
16,G7C A10U,0.0545
17,C8A C21U,0.107
18,U6C G48A,0.514
19,G7C G36C,0.0549
20,G7C A30U,0.0697
21,G7C A30C,0.0728
22,C8A A32C,0.42
23,C8A A32G,0.331
24,G7A G44C,0.322

row,Variant,self-cleavage
1,G7A G44A,0.619
2,G7A G44U,0.422
3,U6G G41C,0.092
4,G7U G39C,0.0429
5,G7U G39A,0.0425
6,G7C G24A,0.0629
7,C8A G44A,0.555
8,C8A G41A,0.175
9,C8A G28C,0.159
10,C8A G28U,0.22
11,C8A G16U,0.144
12,G7A U12G,0.381
13,G7A U12C,0.455
14,G7A U31G,0.647
15,G7A U31C,0.451
16,U6G C14U,0.608
17,G7C G13A,0.0687
18,G7C G13C,0.0439
19,U6G A35U,0.549
20,U6G A35C,0.678
21,G7C C15G,0.0181
22,G7C C15A,0.0454
23,G7U G13C,0.0504
24,G7U G13A,0.0636

row,Variant,self-cleavage
1,C8A G24C,0.31
2,C8A G24U,0.841
3,U6C G38U,0.282
4,G7U G16A,0.0674
5,G7U G16U,0.0559
6,G7C A34U,0.067
7,G7C A34C,0.118
8,G7C A34G,0.061
9,G7A C9U,0.0809
10,G7C U12C,0.0838
11,G7A G28U,0.28
12,G7U C46A,0.0526
13,G7U G28A,0.0571
14,G7U G17U,0.0401
15,C8G A23G,0.0516
16,C8G A23U,0.103
17,G7C C14U,0.0373
18,G7U G29C,0.0397
19,G7U G29A,0.0635
20,U6C G29A,0.34
21,U6C G29U,0.371
22,U6G G24A,0.0855
23,G7U C27G,0.0829
